Reference: IntAct's records for PubMed 25910212

B1: DNA ligase 4 (Homo sapiens), P49917 (parent)
chain: MAASQTSQTVASHVPFADLCSTLERIQKSKGRAEKIRHFREFLDSWRKFHDALHKNHKDVTDSFYPAMRLILPQLERERMAYGIKETMLAKLYIELLNLPRDGKDALKLLNYRTPTGTHGDAGDFAMIAYFVLKPRCLQKGSLTIQQVNDLLDSIASNNSAKRKDLIKKSLLQLITQSSALEQKWLIRMIIKDLKLGVSQQTIFSVFHNDAAELHNVTTDLEKVCRQLHDPSVGLSDISITLFSAFKPMLAAIADIEHIEKDMKHQSFYIETKLDGERMQMHKDGDVYKYFSRNGYNYTDQFGASPTEGSLTPFIHNAFKADIQICILDGEMMAYNPNTQTFMQKGTKFDIKRMVEDSDLQTCYCVFDVLMVNNKKLGHETLRKRYEILSSIFTPIPGRIEIVQKTQAHTKNEVIDALNEAIDKREEGIMVKQPLSIYKPDKRGEGWLKIKPEYVSGLMDELDILIVGGYWGKGSRGGMMSHFLCAVAEKPPPGEKPSVFHTLSRVGSGCTMKELYDLGLKLAKYWKPFHRKAPPSSILCGTEKPEVYIEPCNSVIVQIKAAEIVPSDMYKTGCTLRFPRIEKIRDDKEWHECMTLDDLEQLRGKASGKLASKHLYIGGDDEPQEKKRKAAPKMKKVIGIIEHLKAPNLTNVNKISNIFEDVEFCVMSGTDSQPKPDLENRIAEFGGYIVQNPGPDTYCVIAGSENIRVKNIILSNKHDVVKPAWLLECFKTKSFVPWQPRFMIHMCPSTKEHFAREYDCYGDSYFIDTDLNQLKEVFSGIKNSNEQTPEEMASLIADLEYRYSWDCSPLSMFRRHTVYLDSYAVINDLSTKNEGTRLAIKALELRFHGAKVVSCLAEGVSHVIIGEDHSRVADFKAFRRTFKRKFKILKESWVTDSIDKCELQEENQYLI
B2: Beta-crystallin A4 (Homo sapiens), P53673 (parent)
chain: MTLQCTKSAGPWKMVVWDEDGFQGRRHEFTAECPSVLELGFETVRSLKVLSGAWVGFEHAGFQGQQYILERGEYPSWDAWGGNTAYPAERLTSFRPAACANHRDSRLTIFEQENFLGKKGELSDDYPSLQAMGWEGNEVGSFHVHSGAWVCSQFPGYRGFQYVLECDHHSGDYKHFREWGSHAPTFQVQSIRRIQQ
partner: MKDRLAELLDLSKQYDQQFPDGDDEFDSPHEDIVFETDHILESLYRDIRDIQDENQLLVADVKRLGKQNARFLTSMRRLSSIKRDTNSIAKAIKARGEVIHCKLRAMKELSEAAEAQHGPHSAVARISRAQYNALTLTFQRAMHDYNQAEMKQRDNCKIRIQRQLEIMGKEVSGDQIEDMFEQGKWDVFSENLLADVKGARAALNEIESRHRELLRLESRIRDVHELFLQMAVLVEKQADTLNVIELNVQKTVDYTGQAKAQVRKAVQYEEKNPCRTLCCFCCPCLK
B3: Plasma membrane ascorbate-dependent reductase CYBRD1 (Homo sapiens), Q53TN4 (parent)
chain: MAMEGYWRFLALLGSALLVGFLSVIFALVWVLHYREGLGWDGSALEFNWHPVLMVTGFVFIQGIAIIVYRLPWTWKCSKLLMKSIHAGLNAVAAILAIISVVAVFENHNVNNIANMYSLHSWVGLIAVICYLLQLLSGFSVFLLPWAPLSLRAFLMPIHVYSGIVIFGTVIATALMGLTEKLIFSLRDPAYSTFPPEGVFVNTLGLLILVFGALIFWIVTRPQWKRPKEPNSTILHPNGGTEQGARGSMPAYSGNNMDKSDSELNSEVAARKRNLALDEAGQRSTM
B4: U4/U6 small nuclear ribonucleoprotein Prp31 (Homo sapiens), Q8WWY3 (parent)
chain: MSLADELLADLEEAAEEEEGGSYGEEEEEPAIEDVQEETQLDLSGDSVKTIAKLWDSKMFAEIMMKIEEYISKQAKASEVMGPVEAAPEYRVIVDANNLTVEIENELNIIHKFIRDKYSKRFPELESLVPNALDYIRTVKELGNSLDKCKNNENLQQILTNATIMVVSVTASTTQGQQLSEEELERLEEACDMALELNASKHRIYEYVESRMSFIAPNLSIIIGASTAAKIMGVAGGLTNLSKMPACNIMLLGAQRKTLSGFSSTSVLPHTGYIYHSDIVQSLPPDLRRKAARLVAAKCTLAARVDSFHESTEGKVGYELKDEIERKFDKWQEPPPVKQVKPLPAPLDGQRKKRGGRRYRKMKERLGLTEIRKQANRMSFGEIEEDAYQEDLGFSLGHLGKSGSGRVRQTQVNEATKARISKTLQRTLQKQSVVYGGKSTIRDRSSGTASSVAFTPLQGLEIVNPQAAEKKVAEANQKYFSSMAEFLKVKGEKSGLMST
partner: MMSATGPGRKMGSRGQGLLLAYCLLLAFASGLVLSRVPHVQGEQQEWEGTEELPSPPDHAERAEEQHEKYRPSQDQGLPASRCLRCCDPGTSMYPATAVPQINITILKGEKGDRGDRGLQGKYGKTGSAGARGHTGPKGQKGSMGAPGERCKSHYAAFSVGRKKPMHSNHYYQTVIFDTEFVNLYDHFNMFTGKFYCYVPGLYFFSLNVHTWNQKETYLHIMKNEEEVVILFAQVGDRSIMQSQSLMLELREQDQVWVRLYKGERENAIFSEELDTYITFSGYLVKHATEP
B5: Carbonic anhydrase-related protein (Homo sapiens), P35219 (parent)
chain: MADLSFIEDTVAFPEKEEDEEEEEEGVEWGYEEGVEWGLVFPDANGEYQSPINLNSREARYDPSLLDVRLSPNYVVCRDCEVTNDGHTIQVILKSKSVLSGGPLPQGHEFELYEVRFHWGRENQRGSEHTVNFKAFPMELHLIHWNSTLFGSIDEAVGKPHGIAIIALFVQIGKEHVGLKAVTEILQDIQYKGKSKTIPCFNPNTLLPDPLLRDYWVYEGSLTIPPCSEGVTWILFRYPLTISQLQIEEFRRLRTHVKGAELVEGCDGILGDNFRPTQPLSDRVIRAAFQ
partner: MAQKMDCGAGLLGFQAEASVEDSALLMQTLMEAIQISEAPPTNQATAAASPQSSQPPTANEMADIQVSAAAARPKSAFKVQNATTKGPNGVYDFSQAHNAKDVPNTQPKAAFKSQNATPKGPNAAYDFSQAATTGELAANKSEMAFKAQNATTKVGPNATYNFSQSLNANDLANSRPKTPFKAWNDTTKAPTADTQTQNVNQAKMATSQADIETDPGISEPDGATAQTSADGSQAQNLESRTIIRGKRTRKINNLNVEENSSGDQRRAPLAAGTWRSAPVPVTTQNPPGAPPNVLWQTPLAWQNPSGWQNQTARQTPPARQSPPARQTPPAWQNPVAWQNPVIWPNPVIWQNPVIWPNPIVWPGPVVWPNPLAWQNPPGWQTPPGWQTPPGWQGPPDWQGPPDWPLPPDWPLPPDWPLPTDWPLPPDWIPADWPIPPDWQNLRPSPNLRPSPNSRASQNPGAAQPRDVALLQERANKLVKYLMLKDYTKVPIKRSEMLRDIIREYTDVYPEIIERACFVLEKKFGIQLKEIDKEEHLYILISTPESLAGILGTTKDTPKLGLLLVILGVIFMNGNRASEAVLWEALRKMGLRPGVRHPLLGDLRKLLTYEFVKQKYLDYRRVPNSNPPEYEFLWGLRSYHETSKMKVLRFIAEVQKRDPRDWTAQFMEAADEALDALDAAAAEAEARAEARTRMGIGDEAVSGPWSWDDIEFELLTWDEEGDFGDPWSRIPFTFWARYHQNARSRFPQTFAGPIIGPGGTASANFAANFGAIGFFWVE
B6: Acetylcholine receptor subunit gamma (Homo sapiens), P07510-2 (parent)
chain: MHGGQGPLLLLLLLAVCLGAQGRNQEERLLADLMQNYDPNLRPAERDSDVVNVSLKLTLTNLISLNEREEALTTNVWIEMQWCDYRLRWDPRDYEGLWVLRVPSTMVWRPDIVLENKSQTYSTNEIDLQLSQEDGQTIEWIFIDPEAFTENGEWAIQHRPAKMLLDPAAPAQEAGHQKVVFYLLIQRKPLFYVINIIAPCVLISSVAILIHFLPAKAGGQKCTVAINVLLAQTVFLFLVAKKVPETSQAVPLISKYLTFLLVVTILIVVNAVVVLNVSLRSPHTHSMARGVRKVFLRLLPQLLRMHVRPLAPAAVQDTQSRLQNGSSGWSITTGEEVALCLPRSELLFQQWQRQGLVAAALEKLEKGPELGLSQFCGSLKQAAPAIQACVEACNLIACARHQQSHFDNGNEEWFLVGRVLDRVCFLAMLSLFICGTAGIFLMAHYNRVPALPFPGDPRPYLPSPD
partner: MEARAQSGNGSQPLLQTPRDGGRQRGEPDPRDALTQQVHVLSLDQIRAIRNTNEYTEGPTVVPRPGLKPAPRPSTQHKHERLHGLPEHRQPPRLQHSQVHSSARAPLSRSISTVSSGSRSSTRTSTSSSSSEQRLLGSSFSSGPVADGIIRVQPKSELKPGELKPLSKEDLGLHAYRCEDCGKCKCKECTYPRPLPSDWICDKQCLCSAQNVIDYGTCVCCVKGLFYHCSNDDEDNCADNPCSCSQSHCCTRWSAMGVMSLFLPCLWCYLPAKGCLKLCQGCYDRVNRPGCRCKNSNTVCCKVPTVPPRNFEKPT

Variants of: B1
Conditions: with xrcc4_human XRCC4, Q13426
Chain of xrcc4_human XRCC4, Q13426 (Q13426 whole entry): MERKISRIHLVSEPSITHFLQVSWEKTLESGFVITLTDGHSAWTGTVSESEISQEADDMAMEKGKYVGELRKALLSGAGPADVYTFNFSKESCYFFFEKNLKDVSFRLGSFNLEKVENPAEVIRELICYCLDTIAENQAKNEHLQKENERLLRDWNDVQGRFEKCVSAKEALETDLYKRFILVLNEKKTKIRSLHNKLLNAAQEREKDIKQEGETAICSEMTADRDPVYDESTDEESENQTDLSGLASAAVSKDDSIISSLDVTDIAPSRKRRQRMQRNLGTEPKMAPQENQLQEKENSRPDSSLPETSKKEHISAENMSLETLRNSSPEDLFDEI

| effect of a mutation on the interaction | Variant |
| --- | --- |
| with no effect | A857T |

Variants of: B2
Conditions: with stx11_human STX11, O75558

| effect of a mutation on the interaction | Variant |
| --- | --- |
| disrupting interaction strength | L69P |
| disrupting interaction strength | F94S |
| disrupting interaction strength | V36M |

Variants of: B3
Conditions: with stx4_human STX4, Q12846
Chain of stx4_human STX4, Q12846 (Q12846 whole entry): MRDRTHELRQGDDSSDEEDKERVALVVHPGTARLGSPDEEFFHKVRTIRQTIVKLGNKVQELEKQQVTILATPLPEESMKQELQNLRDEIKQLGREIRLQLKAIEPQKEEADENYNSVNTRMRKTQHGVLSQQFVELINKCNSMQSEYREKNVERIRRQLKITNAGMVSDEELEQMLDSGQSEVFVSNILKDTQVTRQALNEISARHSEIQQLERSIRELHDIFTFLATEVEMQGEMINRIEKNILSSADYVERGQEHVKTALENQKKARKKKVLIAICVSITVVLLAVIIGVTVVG

| effect of a mutation on the interaction | Variant |
| --- | --- |
| with no effect | R226H |

Variants of: B4
Conditions: with C1QTNF1, Q9BXJ1-2

| effect of a mutation on the interaction | Variant |
| --- | --- |
| with no effect | L107V |

Variants of: B5
Conditions: with magd1_human MAGED1, Q9Y5V3

| effect of a mutation on the interaction | Variant |
| --- | --- |
| disrupting interaction strength | S100P |

Variants of: B6
Conditions: with spy2_human SPRY2, O43597

| effect of a mutation on the interaction | Variant |
| --- | --- |
| disrupting interaction strength | R86C |
| disrupting interaction strength | R187C |
| disrupting interaction strength | V107G |
